Source: patent US20250075006A1 (SHANDONG SIMCERE BIOPHARMACEUTICAL, published 2025)
Blank lines part the entries; values can stand above or below the binder they belong to.

Assays:
[1] = target: T1, Cyno GUCY2C ECD (his-tagged cynomolgus monkey GUCY2C protein extracellular domain fusion protein) (cynomolgus monkey, UniProt P25092 24-430 (human entry)); assay: BLI Gator, antibody on anti-human Fc probe, antigen in solution
T1 construct: also called monkey GUCY2C-his; monkey GUCY2C-His
T1 chain: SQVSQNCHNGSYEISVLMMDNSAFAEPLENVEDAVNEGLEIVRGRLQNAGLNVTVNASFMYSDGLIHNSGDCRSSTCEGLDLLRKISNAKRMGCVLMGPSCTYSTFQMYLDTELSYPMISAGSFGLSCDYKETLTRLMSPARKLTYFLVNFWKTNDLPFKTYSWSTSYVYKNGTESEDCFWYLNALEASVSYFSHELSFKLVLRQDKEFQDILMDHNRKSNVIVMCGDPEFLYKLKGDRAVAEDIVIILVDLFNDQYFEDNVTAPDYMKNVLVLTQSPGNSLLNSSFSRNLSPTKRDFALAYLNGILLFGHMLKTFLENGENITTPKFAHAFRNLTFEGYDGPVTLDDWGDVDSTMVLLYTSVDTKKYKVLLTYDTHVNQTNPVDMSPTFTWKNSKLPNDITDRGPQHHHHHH
Protocol: Next, we measured the affinity of the recombinant antibody by another method, and the specific procedures were as follows: the binding strength of the antibody to the antigen was assayed by acquiring and analyzing the signal change of the reflection interference spectrum on the surface of the optical probe by using thin film interference technology. First, the probe was equilibrated for 300 s with HBS-T+pH 7.4 (0.02% tween) as the mobile phase. 2 μg/mL of the antibody to be tested was captured by an anti-human FC probe (purchased from ProbeLife, PL168-160003) for 240 s, and then antigen proteins with the concentration of 200 nM and diluted two-fold were injected. Kon for 300 s and Koff for 600 s. The association and dissociation processes of the antibody with the antigen protein were recorded, and finally, the chip was regenerated using Glycine pH 2.0 (purchased from GE), wherein the mobile phase was HBS-T+pH 7.4 (0.02% tween), the regeneration time was 5 s, and the assay temperature was 30° C. Finally, according to a 1:1 binding model, the data were analyzed, and the antibody-antigen binding kinetics parameters, including the association rate constant Ka, the dissociation rate constant Kd, the equilibrium dissociation constant KD, and the maximum binding signal Rmax, were fitted. The association rate (Ka), dissociation rate (Kd), and binding affinity (KD) of the recombinant antibodies with the human GUCY2C and monkey GUCY2C proteins are shown in Table 6.

[2] = target: T2, Human GUCY2C ECD (his-tagged human GUCY2C protein extracellular domain fusion protein) (human, UniProt P25092 24-430); assay: ELISA, plate coated with human GUCY2C-his, OD450
T2 construct: also called human GUCY2C-his; human GUCY2C-His
Protocol: To assay the binding activity of the humanized antibodies to human GUCY2C-his protein, a human GUCY2C-his protein was diluted with PBS to a final concentration of 2 μg/mL and then added to a 96-well ELISA plate at 50 μL/well. The plate was sealed with a plastic film and incubated at 4° C. overnight. The next day, the plate was washed 2 times with PBST, and a blocking buffer [PBS+2% (w/w) BSA] was added for blocking at room temperature for 2 h. The blocking buffer was discarded, and the plate was washed 2 times with PBST. An antibody to be tested or a control antibody diluted in a 1:3 gradient from a starting concentration of 100 nM was added at 50 μL/well. After incubation at 37° C. for 1 h, the plate was washed 3 times with PBST. A horseradish peroxidase (HRP)—labeled secondary antibody (purchased from Merck, Cat. No. AP113P) was added for incubation at 37° C. for 1 h, and the plate was washed 5 times with PBST. A TMB substrate was added at 50 µL/well for incubation at room temperature for 5-10 min, and then a stop solution (1.0 M HCl) was added at 50 μL/well. OD450 nm values were read using an ELISA plate reader (Multimode Plate Reader, EnSight, purchased from Perkin Elmer).

[3] = target: T3, Mouse GUCY2C ECD (his-tagged mouse GUCY2C protein extracellular domain fusion protein) (mouse, UniProt Q3UWA6 20-433); assay: ELISA, plate coated with mouse GUCY2C-his, OD450
T3 construct: also called murine GUCY2C-his; murine GUCY2C-His
T3 sequence: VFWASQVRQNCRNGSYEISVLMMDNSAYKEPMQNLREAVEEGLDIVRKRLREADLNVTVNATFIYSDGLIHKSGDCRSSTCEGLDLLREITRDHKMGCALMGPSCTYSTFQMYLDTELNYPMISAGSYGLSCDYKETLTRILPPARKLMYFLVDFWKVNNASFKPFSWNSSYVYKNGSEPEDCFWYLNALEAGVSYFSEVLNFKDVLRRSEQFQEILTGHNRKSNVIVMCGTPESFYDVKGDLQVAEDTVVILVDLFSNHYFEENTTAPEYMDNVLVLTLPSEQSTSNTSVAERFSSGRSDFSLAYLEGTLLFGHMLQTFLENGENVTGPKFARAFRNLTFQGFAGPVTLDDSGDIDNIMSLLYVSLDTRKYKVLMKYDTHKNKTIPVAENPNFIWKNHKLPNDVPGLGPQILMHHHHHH
Protocol: (§1) A human GUCY2C-his protein was diluted with PBS to a final concentration of 2 μg/mL and then added to a 96-well ELISA plate at 50 μL/well. The plate was sealed with a plastic film and incubated at 4° C. overnight. The next day, the plate was washed 2 times with PBST, and a blocking buffer [PBS+2% (w/w) BSA] was added for blocking at room temperature for 2 h. The blocking buffer was discarded, and the recombinant antibody and positive and negative control antibody with a starting concentration of 100 nM serially diluted by 3 folds were added at 50 μL/well. After incubation at 37° C. for 1 h, the plate was washed 3 times with PBST. A horseradish peroxidase (HRP)—labeled secondary antibody (purchased from Merck, Cat. No. AP113P) was added for incubation at 37° C. for 1 h, and the plate was washed 5 times with PBST. A TMB substrate was added at 50 μL/well for incubation at room temperature for 10 min, and then a stop solution (1.0 M HCl) was added at 50 μL/well. The OD450 nm values were read by an ELISA plate reader (Multimode Plate Reader, EnSight, purchased from Perkin Elmer).
(§2) The monkey GUCY2C-his and murine GUCY2C-his proteins were subjected to ELISA and data analysis according to the method described in Example 4.2. The recombinant antibodies Lab306-huFc, Lab322-huFc, and Lab323-huFc have a relatively good binding activity with the monkey GUCY2C-his protein. […]

[4] = target: T1, Cyno GUCY2C ECD (his-tagged cynomolgus …); assay: ELISA, plate coated with monkey GUCY2C-his, OD450
Protocol: as §1, §2

T2 sequence (P25092 other isoform, or with tags, fused parts or gaps): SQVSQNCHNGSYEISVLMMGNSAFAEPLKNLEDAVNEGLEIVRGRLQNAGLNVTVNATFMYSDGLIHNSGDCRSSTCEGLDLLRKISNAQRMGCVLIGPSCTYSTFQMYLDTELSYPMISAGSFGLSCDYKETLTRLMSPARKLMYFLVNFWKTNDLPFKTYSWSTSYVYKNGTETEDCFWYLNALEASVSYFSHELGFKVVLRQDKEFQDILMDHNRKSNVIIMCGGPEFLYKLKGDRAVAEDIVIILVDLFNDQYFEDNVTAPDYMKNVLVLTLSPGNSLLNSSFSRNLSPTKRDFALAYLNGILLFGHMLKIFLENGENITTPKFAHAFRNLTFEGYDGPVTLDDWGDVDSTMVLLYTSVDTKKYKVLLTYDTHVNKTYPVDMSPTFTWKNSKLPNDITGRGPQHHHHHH

Kd [1]: 0.998 nM
koff [1]: 0.000486 s⁻¹
kon [1]: 487000 M⁻¹ s⁻¹
EC50 (read off the curve) [2]: ~0.04 nM
binding result [3]: no binding (tested: 100 nM)
EC50 (read off the curve) [4]: ~0.08 nM
B1: 5F9-hIgG1 (antibody, V domains shown)
VH: QVQLQQWGAGLLKPSETLSLTCAVFGGSFSGYYWSWIRQPPGKGLEWIGEINHRGNTNDNPSLKSRVTISVDTSKNQFALKLSSVTAADTAVYYCARERGYTYGNFDHWGQGTLVTVSS
VL: EIVMTQSPATLSVSPGERATLSCRASQSVSRNLAWYQQKPGQAPRLLIYGASTRATGIPARFSGSGSGTEFTLTIGSLQSEDFAVYYCQQYKTWPRTFGQGTNVEIKR
notes: also called positive control antibody

Kd [1]: 0.256 nM
koff [1]: 0.000138 s⁻¹
kon [1]: 540000 M⁻¹ s⁻¹
EC50 (read off the curve) [2]: ~0.05 nM
EC50 (read off the curve) [3]: ~0.05 nM
EC50 (read off the curve) [4]: ~0.08 nM
B2: PF1608-hIgG1 (antibody, V domains shown)
VH: EVQLVESGGGLVQPGGSLRLSCAASGFTFSSYWMHWVRQAPGKGLEWIGEIKPSNELTNVHEKFKDRFTISVDKAKNSAYLQMNSLRAEDTAVYYCTRTITTTEGYWFFDVWGQGTLVTVSS
VL: DIQLTQSPSSLSASVGDRVTITCRASESVDYYGSSLLQWYQQKPGKAPKLLIYAASKLASGVPSRFSGSGSGTDFTLTISSLQPEDFATYYCQQTRKAYTFGQGTKLEIKR
notes: also called PF1608-hlgG1; positive control antibody
